This note sets out measurements from paper PMC10841698 (Cell, 2023).

Read-outs that look alike come from different tables or passages of the source.

The target in test [1] is T1, human Wntless (WLS) with a C-terminal Flag tag (human, UniProt Q5T9L3 1-541).
T1 sequence: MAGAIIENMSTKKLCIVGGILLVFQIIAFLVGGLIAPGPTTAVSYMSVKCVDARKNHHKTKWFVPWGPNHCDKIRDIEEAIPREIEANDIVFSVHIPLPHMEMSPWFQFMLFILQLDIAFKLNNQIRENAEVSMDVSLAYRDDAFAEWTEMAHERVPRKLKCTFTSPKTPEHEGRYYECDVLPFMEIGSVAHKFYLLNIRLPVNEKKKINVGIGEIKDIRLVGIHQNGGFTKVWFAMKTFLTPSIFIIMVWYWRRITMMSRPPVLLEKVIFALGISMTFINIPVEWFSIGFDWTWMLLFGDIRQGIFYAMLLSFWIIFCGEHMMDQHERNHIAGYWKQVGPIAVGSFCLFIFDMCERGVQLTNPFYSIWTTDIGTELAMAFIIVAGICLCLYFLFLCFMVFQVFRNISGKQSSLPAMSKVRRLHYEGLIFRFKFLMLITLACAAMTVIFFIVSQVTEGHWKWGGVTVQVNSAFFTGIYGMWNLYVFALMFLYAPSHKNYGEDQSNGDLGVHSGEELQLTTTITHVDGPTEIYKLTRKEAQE
Description: cryo-EM structure.

The target in test [2] is T2, endogenous calreticulin (CALR) of HEK293 cells (human (endogenous in HEK293S GnTI-), UniProt P27797 18-417).
T2 sequence (looked up): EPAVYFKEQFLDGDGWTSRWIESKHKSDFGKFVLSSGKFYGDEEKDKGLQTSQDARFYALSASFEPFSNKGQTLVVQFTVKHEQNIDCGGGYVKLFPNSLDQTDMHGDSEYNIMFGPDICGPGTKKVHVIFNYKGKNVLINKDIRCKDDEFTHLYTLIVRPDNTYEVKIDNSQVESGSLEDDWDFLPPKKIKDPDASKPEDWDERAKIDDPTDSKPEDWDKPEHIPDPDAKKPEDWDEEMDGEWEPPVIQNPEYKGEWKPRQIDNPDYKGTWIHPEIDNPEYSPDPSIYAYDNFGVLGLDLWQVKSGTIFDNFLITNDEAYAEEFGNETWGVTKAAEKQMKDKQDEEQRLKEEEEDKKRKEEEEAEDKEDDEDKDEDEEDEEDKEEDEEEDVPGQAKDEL
Kind of test: cryo-EM structure.

The target in test [3] is T3, human full-length RECK without a tag (human, UniProt O95980 23-942).
T3 sequence (looked up): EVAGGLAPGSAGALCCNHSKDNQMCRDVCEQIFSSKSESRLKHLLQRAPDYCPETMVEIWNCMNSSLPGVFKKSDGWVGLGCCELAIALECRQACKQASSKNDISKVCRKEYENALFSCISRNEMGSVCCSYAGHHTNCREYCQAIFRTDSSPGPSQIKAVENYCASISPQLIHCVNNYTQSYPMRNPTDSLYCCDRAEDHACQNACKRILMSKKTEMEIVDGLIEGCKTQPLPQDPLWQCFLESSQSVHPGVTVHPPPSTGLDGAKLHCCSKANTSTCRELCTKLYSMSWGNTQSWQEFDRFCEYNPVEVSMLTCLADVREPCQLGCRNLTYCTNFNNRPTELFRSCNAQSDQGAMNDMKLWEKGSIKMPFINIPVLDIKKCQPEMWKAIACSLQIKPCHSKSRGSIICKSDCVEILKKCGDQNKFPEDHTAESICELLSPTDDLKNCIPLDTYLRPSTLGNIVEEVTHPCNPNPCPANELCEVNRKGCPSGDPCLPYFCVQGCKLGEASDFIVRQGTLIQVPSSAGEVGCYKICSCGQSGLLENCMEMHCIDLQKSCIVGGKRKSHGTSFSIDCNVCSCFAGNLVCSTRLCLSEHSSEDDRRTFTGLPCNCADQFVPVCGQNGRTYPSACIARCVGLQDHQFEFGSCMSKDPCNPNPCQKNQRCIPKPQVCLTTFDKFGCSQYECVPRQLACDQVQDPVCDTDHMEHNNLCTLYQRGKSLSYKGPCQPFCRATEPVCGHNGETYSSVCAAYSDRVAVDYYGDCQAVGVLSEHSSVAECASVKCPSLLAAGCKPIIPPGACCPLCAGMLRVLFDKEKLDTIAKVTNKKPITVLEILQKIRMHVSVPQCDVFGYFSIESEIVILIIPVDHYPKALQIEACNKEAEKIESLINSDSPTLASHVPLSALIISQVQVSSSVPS
Kind of test: cryo-EM structure.

In test [4] the target is T2, endogenous calreticulin (CALR) of …. Kind of test: cryo-EM structure. This is another data set of the same source.
Test [5] concerns the target T1, human Wntless (WLS) with a C-terminal …. Kind of test: co-IP.

B1: human Wnt3a without a tag (ligand, UniProt P56704 19-352, looked up)
chain: SYPIWWSLAVGPQYSSLGSQPILCASIPGLVPKQLRFCRNYVEIMPSVAEGIKIGIQECQHQFRGRRWNCTTVHDSLAIFGPVLDKATRESAFVHAIASAGVAFAVTRSCAEGTAAICGCSSRHQGSPGKGWKWGGCSEDIEFGGMVSREFADARENRPDARSAMNRHNNEAGRQAIASHMHLKCKCHGLSGSCEVKTCWWSQPDFRAIGDFLKDKYDSASEMVVEKHRESRGWVETLRPRYTYFKVPTERDLVYYEASPNFCEPNPETGSFGTRDRTCNVSSHGIDGCDLLCCGRGHNARAERRREKCRCVFHWCCYVSCQECTRVYDVHTCK
modifications: palmitoleate moiety (PAM); N-glycan at Asn298
With B1, the binding result in test [1] and in test [2] was “binds” throughout.

B2: human Wnt7a with a C-terminal GG linker and 6xHis tag (ligand, UniProt O00755 32-349, looked up)
chain: LGASIICNKIPGLAPRQRAICQSRPDAIIVIGEGSQMGLDECQFQFRNGRWNCSALGERTVFGKELKVGSREAAFTYAIIAAGVAHAITAACTQGNLSDCGCDKEKQGQYHRDEGWKWGGCSADIRYGIGFAKVFVDAREIKQNARTLMNLHNNEAGRKILEENMKLECKCHGVSGSCTTKTCWTTLPQFRELGYVLKDKYNEAVHVEPVRASRNKRPTFLKIKKPLSYRKPMDTDLVYIEKSPNYCEEDPVTGSVGTQGRACNKTAPQASGCDLMCCGRGYNTHQYARVWQCNCKFHWCCYVKCNTCSERTEMYTCK
modifications: palmitoleate moiety (PAM) on the conserved serine of hairpin 2; N-glycan at Asn295
Regarding B2, the binding result in test [3] and in test [4] was “binds” throughout.

B3: human Wnt7a with a C-terminal GG linker and Strep tag (ligand, UniProt O00755 32-349, looked up)
chain: B2 chain
modifications: palmitoleate moiety (PAM) on the conserved serine of hairpin 2; N-glycan at Asn295
As for B3, in test [5], the binding result was “binds”.
